Source: PMC7423924, “A fluorogenic cyclic peptide for imaging and quantification of drug-induced apoptosis” (Nature Communications, 2020)
Where “and” joins values, the source holds several entries; their conditions need not be identical. Identical values can stand only once.

Test system: human monocyte-derived macrophages (MDMs)
Test: Phagocytosis of pHrodo-labeled apoptotic neutrophils by MDMs
Format: cell-based
Settings: protein S 25 nM, AF647-Annexin V 25 nM
Experimental: Neutrophils were cultured in the absence (black) or presence of Apo-15 (gray: 100 nM, white: 300 nM). Data presented as mean values ± SEM (n = 3). b Representative histograms of glucocorticoid-treated human MDMs after phagocytosis of pHrodo^TM-labeled neutrophils in the presence of different concentrations of Apo-15. Cells were analyzed using a 5L LSR cytometer with MDM identified based on their distinctive forward and side scatter properties (n = 4). Gating strategy in Supplementary Fig. 15A. c Flow cytometric quantification of phagocytosis of pHrodo^TM-labeled neutrophils by human MDMs. Human MDMs and neutrophils were co-cultured in the absence or presence of protein S (25 nM) and Apo-15 (60 or 600 nM) or AF647-Annexin V (25 nM). Data presented as mean values ± SEM (n ≥ 3). d Representative brightfield and fluorescence microscope images (from four independent experiments) of Apo-15-treated human neutrophils (green) in co-culture with human MDMs. […]
One potential limitation to the use of annexins for imaging apoptosis is their interference with the clearance of apoptotic cells by phagocytes. […] We examined whether Apo-15 affected the engulfment of apoptotic cells using a well-established in vitro assay to quantify the extent of phagocytosis in human monocyte-derived macrophages (MDMs) in the presence of the PS-opsonin protein S (Fig. 4b)[32],[33]. […]

B1: Annexin V: fluorescently-labeled (AF647) annexin V, PS-binding protein (protein, UniProt P08758 2-320, looked up)
Annexin A5: AQVLRGTVTDFPGFDERADAETLRKAMKGLGTDEESILTLLTSRSNAQRQEISAAFKTLFGRDLLDDLKSELTGKFEKLIVALMKPSRLYDAYELKHALKGAGTNEKVLTEIIASRTPEELRAIKQVYEEEYGSSLEDDVVGDTSGYYQRMLVVLLQANRDPDAGIDEAQVEQDAQALFQAGELKWGTDEEKFITIFGTRSVSHLRKVFDKYMTISGFQIEETIDRETSGNLEQLLLAVVKSIRSIPAYLAETLYYAMKGAGTDDHTLIRVMVSRSEIDLFNIRKEFRKNFATSLYSMIKGDTSGDYKKALLLLCGEDD
modifications: AF647 label
- Phagocytosis assay (%) (40 min, 37 °C, single replicates): 30.0% and 35.0% and 33.0%
- Reduction of the phagocytic capacity of MDMs (Apo-15 60 or 600 nM): ~ 50%
